Changes are numbered by the printed parent chain.
Columns and labels:
[1] = biological target: T1, NLpoly 5A2 (G15A/G35A/G51A/G67A/G71A); assay: luminescence complementation, one-site specific binding; replicate 1
T1 chain: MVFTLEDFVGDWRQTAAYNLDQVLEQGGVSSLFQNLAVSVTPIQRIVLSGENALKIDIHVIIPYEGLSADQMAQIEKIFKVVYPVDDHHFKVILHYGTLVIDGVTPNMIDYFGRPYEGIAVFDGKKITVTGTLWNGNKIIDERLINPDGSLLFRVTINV

[2] = biological target: T1, NLpoly 5A2 (G15A/G35A/G51A/G67A/G71A); assay: luminescence complementation, one-site specific binding; replicate 2
[3] = biological target: T1, NLpoly 5A2 (G15A/G35A/G51A/G67A/G71A); assay: luminescence complementation, one-site specific binding; replicate 3
5P+V = assay: luminescence complementation
5P+VT = assay: luminescence complementation
5P+VTG = assay: luminescence complementation
[4] = biological target: T2, wild-type non-luminescent polypeptide (WT fragment of residues 1-156 of NanoLuc); assay: kinetics (koff/kon)
T2 chain: T1 chain with A17G, A37G, A53G, A69G, A73G

NLpoly 11S (12-A51T) = biological target: T3, NLpoly 11S (12-A51T); assay: kinetics (koff/kon)
T3 chain: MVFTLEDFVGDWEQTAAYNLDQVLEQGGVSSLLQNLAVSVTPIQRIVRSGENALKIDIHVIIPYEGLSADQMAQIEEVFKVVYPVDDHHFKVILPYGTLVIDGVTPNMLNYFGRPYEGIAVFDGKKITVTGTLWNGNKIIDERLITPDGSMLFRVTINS

[5] = biological target: T2, wild-type non-luminescent polypeptide …; assay: luminescence complementation; PBS
[6] = biological target: T2, wild-type non-luminescent polypeptide …; assay: luminescence complementation; NanoGlo
[7] = biological target: T2, wild-type non-luminescent polypeptide …; assay: luminescence complementation; average HeLa, HEK293, CHO lysates

Work on Ac-VSGWRLFKKIS-NH2 [NLpep86] yielded a Kd [1] of 0.0991 µM, a Kd [2] of 0.11 µM and a Kd [3] of 0.0933 µM.

Ac-VSGWRLFKKISN-NH2 [NLpep80] was tested, and the Kd (5P+V) was 0.0103 µM, the Kd (5P+VT) was 0.0096 µM and the Kd (5P+VTG) was 0.0075 µM.

With Ac-GWRLFKKISN-NH2 [NLpep82] the Kd (5P+V) was 0.128 µM, the Kd (5P+VT) was 0.198 µM and the Kd (5P+VTG) was 0.273 µM.

With Ac-SGWRLFKKISN-NH2 [NLpep81] the Kd (5P+V) was 0.15 µM, the Kd (5P+VT) was 0.218 µM and the Kd (5P+VTG) was 0.283 µM.

Work on NVTGYRLFKKISN [NLpep79] yielded a Kd [4] of 5580 µM, a Kd (NLpoly 11S (12-A51T)) of 42 µM and a Kd [5] of 0.487 µM. For the same binder, the Kd [6] was 2.89 µM and the Kd [7] was 5.13 µM.

GVTGWRLCERILA [NLpepWT] gave a Kd (NLpoly 11S (12-A51T)) of 629 µM, a Kd [5] of 1.34 µM and a Kd [6] of 20.6 µM. For the same binder, the Kd [7] was 8.35 µM.
